Measured values taken from US20120045438A1 (Janssen / Centocor, published 2012).

B1: Phage # 39 Fab (IL-13-142 library) (Fab, V domains shown)
VH: QVTLKESGPVLVKPTETLTLTCTVSGFSLSTYGMGVGWIRQPPGKALEWLAHIWWDDVKRYNPALKSRLTISKDTSKSQVVLTMTNMDPVDTATYYCARMGSDYDVWFDYWGQGTLVTVSS
VL: DIQMTQSPSTLSASVGDRVTITCRASKSISKYLAWYQQKPGKAPKLLIYSGSTLQSGVPSRFSGSGSGTEFTLTISSLQPDDFATYYCQQHLGVPYTFGGGTKVEIK
notes: Fab on phage pIX
B2: Phage # 55 Fab (IL-13-142 library) (Fab, V domains shown)
VH: QVTLKESGPVLVKPTETLTLTCTVSGFSLSTYGMGVGWIRQPPGKALEWLAHIWWDDVKRYNPALKSRLTISKDTSKSQVVLTMTNMDPVDTATYYCARMGSDYDVWFDYWGQGTLVTVSS
VL: DIQMTQSPSTLSASVGDRVTITCRASKSISKYLAWYQQKPGKAPKLLIYSGSTLQSGVPSRFSGSGSGTEFTLTISSLQPDDFATYYCQQHLTNPYTFGGGTKVEIK
notes: Fab on phage pIX
B3: Phage # 57 Fab (IL-13-142 library) (Fab, V domains shown)
VH: QVTLKESGPVLVKPTETLTLTCTVSGFSLSTYGMGVGWIRQPPGKALEWLAHIWWDDVKRYNPALKSRLTISKDTSKSQVVLTMTNMDPVDTATYYCARMGSDYDVWFDYWGQGTLVTVSS
VL: DIQMTQSPSTLSASVGDRVTITCRASKSISKYLAWYQQKPGKAPKLLIYSGSTLQSGVPSRFSGSGSGTEFTLTISSLQPDDFATYYCQQHDWEPYTFGGGTKVEIK
notes: Fab on phage pIX
B4: Phage # 67 Fab (IL-13-142 library) (Fab, V domains shown)
VH: QVTLKESGPVLVKPTETLTLTCTVSGFSLSTYGMGVGWIRQPPGKALEWLAHIWWDDVKRYNPALKSRLTISKDTSKSQVVLTMTNMDPVDTATYYCARMGSDYDVWFDYWGQGTLVTVSS
VL: DIQMTQSPSTLSASVGDRVTITCRASKSISKYLAWYQQKPGKAPKLLIYSGSTLQSGVPSRFSGSGSGTEFTLTISSLQPDDFATYYCQQPIDGPYTFGGGTKVEIK
notes: Fab on phage pIX
B5: Phage # 43 Fab (IL-13-142 library) (Fab, V domains shown)
VH: QVTLKESGPVLVKPTETLTLTCTVSGFSLSTYGMGVGWIRQPPGKALEWLAHIWWDDVKRYNPALKSRLTISKDTSKSQVVLTMTNMDPVDTATYYCARMGSDYDVWFDYWGQGTLVTVSS
VL: DIQMTQSPSTLSASVGDRVTITCRASKSISKYLAWYQQKPGKAPKLLIYSGSTLQSGVPSRFSGSGSGTEFTLTISSLQPDDFATYYCQQHLGQPYTFGGGTKVEIK
notes: Fab on phage pIX
B6: Phage # 61 Fab (IL-13-142 library) (Fab, V domains shown)
VH: QVTLKESGPVLVKPTETLTLTCTVSGFSLSTYGMGVGWIRQPPGKALEWLAHIWWDDVKRYNPALKSRLTISKDTSKSQVVLTMTNMDPVDTATYYCARMGSDYDVWFDYWGQGTLVTVSS
VL: DIQMTQSPSTLSASVGDRVTITCRASKSISKYLAWYQQKPGKAPKLLIYSGSTLQSGVPSRFSGSGSGTEFTLTISSLQPDDFATYYCQQHLFTPYTFGGGTKVEIK
notes: Fab on phage pIX
B7: Phage # 47 Fab (IL-13-142 library) (Fab, V domains shown)
VH: QVTLKESGPVLVKPTETLTLTCTVSGFSLSTYGMGVGWIRQPPGKALEWLAHIWWDDVKRYNPALKSRLTISKDTSKSQVVLTMTNMDPVDTATYYCARMGSDYDVWFDYWGQGTLVTVSS
VL: DIQMTQSPSTLSASVGDRVTITCRASKSISKYLAWYQQKPGKAPKLLIYSGSTLQSGVPSRFSGSGSGTEFTLTISSLQPDDFATYYCQQLTYEPYTFGGGTKVEIK
notes: Fab on phage pIX
B8: Phage # 44 Fab (IL-13-142 library) (Fab, V domains shown)
VH: QVTLKESGPVLVKPTETLTLTCTVSGFSLSTYGMGVGWIRQPPGKALEWLAHIWWDDVKRYNPALKSRLTISKDTSKSQVVLTMTNMDPVDTATYYCARMGSDYDVWFDYWGQGTLVTVSS
VL: DIQMTQSPSTLSASVGDRVTITCRASKSISKYLAWYQQKPGKAPKLLIYSGSTLQSGVPSRFSGSGSGTEFTLTISSLQPDDFATYYCQQHDIGPYTFGGGTKVEIK
notes: Fab on phage pIX
B9: Phage # 70 Fab (IL-13-142 library) (Fab, V domains shown)
VH: QVTLKESGPVLVKPTETLTLTCTVSGFSLSTYGMGVGWIRQPPGKALEWLAHIWWDDVKRYNPALKSRLTISKDTSKSQVVLTMTNMDPVDTATYYCARMGSDYDVWFDYWGQGTLVTVSS
VL: DIQMTQSPSTLSASVGDRVTITCRASKSISKYLAWYQQKPGKAPKLLIYSGSTLQSGVPSRFSGSGSGTEFTLTISSLQPDDFATYYCQQHSWGPYTFGGGTKVEIK
notes: Fab on phage pIX
B10: Phage # 56 Fab (IL-13-142 library) (Fab, V domains shown)
VH: QVTLKESGPVLVKPTETLTLTCTVSGFSLSTYGMGVGWIRQPPGKALEWLAHIWWDDVKRYNPALKSRLTISKDTSKSQVVLTMTNMDPVDTATYYCARMGSDYDVWFDYWGQGTLVTVSS
VL: DIQMTQSPSTLSASVGDRVTITCRASKSISKYLAWYQQKPGKAPKLLIYSGSTLQSGVPSRFSGSGSGTEFTLTISSLQPDDFATYYCQQHWDAPYTFGGGTKVEIK
notes: Fab on phage pIX
B11: Phage # 40 Fab (IL-13-142 library) (Fab, V domains shown)
VH: QVTLKESGPVLVKPTETLTLTCTVSGFSLSTYGMGVGWIRQPPGKALEWLAHIWWDDVKRYNPALKSRLTISKDTSKSQVVLTMTNMDPVDTATYYCARMGSDYDVWFDYWGQGTLVTVSS
VL: DIQMTQSPSTLSASVGDRVTITCRASKSISKYLAWYQQKPGKAPKLLIYSGSTLQSGVPSRFSGSGSGTEFTLTISSLQPDDFATYYCQQHSRGPYTFGGGTKVEIK
notes: Fab on phage pIX
B12: Phage # 71 Fab (IL-13-142 library) (Fab, V domains shown)
VH: QVTLKESGPVLVKPTETLTLTCTVSGFSLSTYGMGVGWIRQPPGKALEWLAHIWWDDVKRYNPALKSRLTISKDTSKSQVVLTMTNMDPVDTATYYCARMGSDYDVWFDYWGQGTLVTVSS
VL: DIQMTQSPSTLSASVGDRVTITCRASKSISKYLAWYQQKPGKAPKLLIYSGSTLQSGVPSRFSGSGSGTEFTLTISSLQPDDFATYYCQQPLDSPYTFGGGTKVEIK
notes: Fab on phage pIX
B13: Phage # 46 Fab (IL-13-142 library) (Fab, V domains shown)
VH: QVTLKESGPVLVKPTETLTLTCTVSGFSLSTYGMGVGWIRQPPGKALEWLAHIWWDDVKRYNPALKSRLTISKDTSKSQVVLTMTNMDPVDTATYYCARMGSDYDVWFDYWGQGTLVTVSS
VL: DIQMTQSPSTLSASVGDRVTITCRASKSISKYLAWYQQKPGKAPKLLIYSGSTLQSGVPSRFSGSGSGTEFTLTISSLQPDDFATYYCQQHVTLPYTFGGGTKVEIK
notes: Fab on phage pIX
B14: Phage # 65 Fab (IL-13-142 library) (Fab, V domains shown)
VH: QVTLKESGPVLVKPTETLTLTCTVSGFSLSTYGMGVGWIRQPPGKALEWLAHIWWDDVKRYNPALKSRLTISKDTSKSQVVLTMTNMDPVDTATYYCARMGSDYDVWFDYWGQGTLVTVSS
VL: DIQMTQSPSTLSASVGDRVTITCRASKSISKYLAWYQQKPGKAPKLLIYSGSTLQSGVPSRFSGSGSGTEFTLTISSLQPDDFATYYCQQHDFVPYTFGGGTKVEIK
notes: Fab on phage pIX
B15: Phage # 51 Fab (IL-13-142 library) (Fab, V domains shown)
VH: QVTLKESGPVLVKPTETLTLTCTVSGFSLSTYGMGVGWIRQPPGKALEWLAHIWWDDVKRYNPALKSRLTISKDTSKSQVVLTMTNMDPVDTATYYCARMGSDYDVWFDYWGQGTLVTVSS
VL: DIQMTQSPSTLSASVGDRVTITCRASKSISKYLAWYQQKPGKAPKLLIYSGSTLQSGVPSRFSGSGSGTEFTLTISSLQPDDFATYYCQQHSAGPYTFGGGTKVEIK
notes: Fab on phage pIX

Molecular target: T1, human IL-13 R130Q variant (R110Q of the mature chain) (human, UniProt P35225 35-146, Biotinylated on amines (NHS-LC-biotin, 4:1) in ELISA, panning and competition assays. The letters are unchanged.)
T1 construct: R130Q counts from Met 1 of the signal peptide, R110Q on the mature chain; Bought from Peprotech; also called IL-13 R110Q; b-R130Q
Experiment: single-point (10 nM) phage Fab ELISA on biotinylated IL-13 R130Q

Binder | % of Lc16Hc7 [%]
B1 | 178
B2 | 355
B3 | 245
B4 | 127
B5 | 205
B6 | 245
B7 | 233
B8 | 240
B9 | 308
B10 | 234
B11 | 179
B12 | 208
B13 | 281
B14 | 147
B15 | 192
